The target of assay [1] is Human PP1g (catalytic subunit of protein phosphatase 1), bacterially expressed (human) (UniProt P36873).
Assay [2] has as its system phosphorylase a. Kind of assay: Blot overlay with 32P labelled phosphorylase a. In kind it is binding. The following applies: proteins electrophoresed, transferred to nitrocellulose, probed with 32P labelled phosphorylase a; blot not shown.
In assay [3] the target is PP1g (catalytic subunit of protein phosphatase 1). Kind of assay: Protein phosphatase assay: phosphorylase phosphatase activity of PP1. It is filed as biochemical, human. The following applies: freshly prepared preparation; 32P-labelled phosphorylase as substrate; preincubated 15 minutes at 30° C.; FIG. 3; read-out: IC50 for inhibition of the phosphorylase phosphatase activity of PP1.
Protocol: Protein phosphatase assays were performed in the absence of divalent cations as described in Cohen et al, (1988), cited above. The catalytic subunit PP1g, described above in Example 2, was diluted in assay buffer to 1.5 U/ml (1.4 nM). Rabbit skeletal muscle glycogen phosphorylase was ^32 P-labelled by phosphorylase kinase to a stoichiometry of 1 mol phosphate per mol subunit as in Cohen et al, Meth. Enzymol. 159:390-408 (1988) and was 10 mM in the assays.
Assays were initiated with 0.01 ml ^32 P-labelled phosphorylase. One unit of activity is the amount of enzyme which catalyses the release of 1 mmol of [^32 P]phosphate per minute.

The values that follow come from US5939284A, “Protein phosphatase 1 binding protein, R5” (Smithkline Beecham Corporation, priority 1996, dated 1999).

In assay [1], GST-GL fusion protein gave an IC50, inhibition of phosphorylase phosphatase activity of PP1 of 100 nM.

For the molecule GST-PPP1R5 fusion protein, the IC50, inhibition of phosphorylase phosphatase activity of PP1 in assay [1] is 100 nM.

B1: GST-GL: GST fusion protein of the rat liver glycogen binding subunit (GL) of protein phosphatase 1, bacterially expressed (protein)
chain: MAVDIEYSYSSMAPSLRRERFTFKISPKLNKPLRPCIQLGSKDEAGRMVAPTVQEKKVKKRVSFADNQGLALTMVKVFSEFDDPLDIPFNITELLDNIVSLTTAESESFVLDFPQPSADYLDFRNRLQTNHVCLENCVLKEKAIAGTVKVQNLAFEKVVKIRMTFDTWKSFTDFPCQYVKDTYAGSDRDTFSFDISLPEKIQSYERMEFAVCYECNGQSYWDSNKGKNYRITRAELRSTQGMTEPYNGPDFGISFDQFGSPRCSFGLFPEWPSYLGYEKLGPYY
Take B1: the “Binding of phosphorylase a” value in assay [2] is “bound”. Moreover, in assay [3], the IC50 – broadly, the concentration at which inhibition is half-maximal – was approximately 100 nM.
